From the domain aggregation screens of Martell et al. (2025)

Assay: soluble fraction after stress (log2 fold change); higher = more stays soluble; pooled small domains, quantitative proteomics
Details: stress: 50 degC
Outline: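 Custom libraries of small protein domains were pooled and measured in a high-throughput format, with quantitative proteomics as the read-out. Each library was stressed at 50°C. The value is the log2 fold change in the amount of each protein that stays soluble after stress, used as a measure of aggregation propensity; higher values mean more of the protein stays soluble.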

Sequence	soluble fraction (log2)
HMGGYLIGDVAQMVGLSRDALRFYEKKGIIRADKKENGYRYYSEDDIYRLMYILYHRKMNTSLEEIGGLMS	-0.739
HMGHKKLTIELQDEIIVLPKELEKYNLTVSDDKTSLIYTYKSRGEKTGITDLLRDIKDAGLRLKDLITEQ	0.434
HMGHTVHAVPEAADRQRLDVFVGNLHPTISRAYIQKLSKEDQILVNGKPEKAGFKLRTGHSVSVPDMSE	0.0769
HMGIAEAKRVIVRTLHDVLGPEADFLTEKIDVAQTAAELRVHAEKYRDMLVDMGKPKKSAAFWEAFEAALP	-0.0544
HMGIAKLLTEQEYKIALLAAERRTNAMIAEEMNLTENTVKTHLKHIFDKVGIAGNAKNKRHLLADMMNSER	-0.277
HMGIDISAFSETALQVLRLQAAGYTAKEISEKLHITPRTVKYHASQNYRKLDAKNLVDAVQIAQALHI	-1.26
HMGIEQVELASRVRDAVDSLPHHLREIILLSYFQKMSYNQIAETLQVPLGTVKSRLHAAVASFAQAWTQSS	-0.706
HMGIFAQTTKWRDIYTVKKKDTIFGIANKYGLSLPELMEANPEMKQEGYMLQKGTTLFIPFASD	-0.483
HMGIGSTLTDGVRVYASDDEIVVNAPAESDVRIFNAGGAQLYAGRVADVRVAVAKGLYVVTVDGRSTKITV	0.00295
HMGIILDWELFEQFADKLKRKKVDFVIEPYLRFEGRRGEQSTLFIKDPSGNYLEFKAFKNIDMLFEK	-0.874
HMGIPIEAYHESLHRHYIDLWELLDTGKETLIDAEGNEVDKIHLLNAIRFNVNGMLHELLKE	-1.76
HMGIQYVASGHYARMETDAQGVSRLFPPESGAPDESDRLAALSPEVLTRLILPLGDFAPEDVEEMAVD	0.102
HMGIRAFDPEAFDERLKEFFSMIAPYKKLDTRSLQPHFPHHAKEVAERIRQLAEAGKIKVDGFYISEL	-0.108
HMGIRDIHITVNGESLKLSKKQNYIFVDIFDFYPFDLSILGGSKLITTINGEQAEFTSPLKDGDVVELYWK	-0.61
HMGISNEETFLLEKMSSGRRYSRKELDNLMGFEKTKTIRLLGSLINKGLVVAEGVNRARRYIR	-1.12
HMGISQAQAMQALRKLIEEEDKHTPLSDQTLMERLKAAGIPLARRTIAKYRESLGIPSAAQRK	-0.109
HMGISVEVPDLKNMSVAEAGSLLKNSGLSYAVVDSDYVKTISPGKILDQNPGRGLRVKKGRIVYLTINSL	-1.37
HMGITDHIYQDLKKRLENGNYPAGTRFPSESTLADEFSVNKMTMNKIVSMLAEQGYLIRGNRGAGTRVAEN	-0.0862
HMGITPSIEMILEYFAFKESSETEANKFFNYYSSIGWLVGGKTKMKDWKASARNWIMNQNKFQ	-3.97
HMGIVAPGTLKHLHAVGNSYYPDWETKRHELVTAVTKGRTSSSKELYEAEANRLITRIEELLMTAAQSV	-0.0132
HMGIVTMPGQGSKMRFDFDATGDLPSSTSWRGMFAYANNTKRAYVSTGTTMGGYNGWRQLIAMDEYGNYQT	-0.0345
HMGKEIEAPDFKNMTLKEAKIAAKEYKIRIKKGDEVVSEEVEKGRIVSQDPDAGTTIKTGSTVTVNISKGL	0.126
HMGKELSTVVVPDLTGLSVLEARNVLTKVGLQLTPSGAGIAFKQIPTPGTRLTLGATVTVYFVATGY	0.0979

Sequence	soluble fraction (log2)
HMGKELTVPDVVGQNYVSAQEKLIAGGFQVEVADSVYDSRYGRGVVVDQNPHKDTRVKPGRLIYVTVNA	-0.0999
HMGKEWPTPDNVEEWKKLVKKARLWPIQADQAQSEETRERNRKKWELFVAYAKRFGYRAGIGETGKPFVNN	-0.443
HMGKINEIVANNIAILRKKNRLSLEELGKLSGVSKSMLALIEKGDGNPTLGILWKIANGLGVPFDELTRRP	-0.0928
HMGKLGENIKRIREGMGLSQRQFGELIGKSDSQIWSYENDRTDILASTLYKIAAVANVDFNNLMAGIIP	-0.925
HMGKLYRDRYAPLEPDGARAGDRVFIISLEKEGTLERIDLPRKTATVLLGSSIRSTFPLDDLYQPRG	0.0151
HMGKMTSTLGVHIAAYRKEHGETVAQFASRSGVSVSSIRRIESGISDPSADLVWKISRHMGMTMDDLFKKM	-3.87
HMGKNISEEDMLGYFKKIDLDYDAETKEVIAPTFRHDLFRLADLAEEVARFFGYDNIPTTLPSGEAT	0.0416
HMGKPAGLIRELGNHPEDEKPVTLNNGRFGPYVKHGKVMASLTKADSPDDITFDRAIELIAIKAEKMAAKG	0.184
HMGKPTPASQVATRWLTGNLPESLPVAGPAPSFEALARTVSTDLHPRSVLQELVRLGVAEEANGVVTLRRQ	-0.00643
HMGKPVTMELLIPYSQGSLVHRISEAGEVAKTEYQNDGTYMQVTFTPSAKDHALMQEVASYRI	0.184
HMGKSDDSLAAEKFIQHVRKNGELSYEQAYRMVHAYFPDFRNFEGMVSGAVKSGYLILIQKSTGLFLRAKE	-0.882
HMGKTEMPFSTFLTEVDKGNIVSVDIRGSEISGNFRDGKGFKTYSPNYPNLVEKLSAKGVAITAGPR	0.187
HMGKTKFTEMSALELKAYAELNNNSMHWVYRMLYIGGGDVGFRKGMKELGYSGKFIWMTLERLKKS	-1.32
HMGKTTQEIEERSSTSTLTLTQTPKEIISVQGKKSDQSFFTNIQYTQNGKVIVPKQTGIYDTIKVVFTVSL	-1.2
HMGKVLIYKPNMSVSDVAIRLGISNAEIIKRLMGLGVMTSINQTIDRDTIELVAMDLGFSIEN	-0.656
HMGLAGVQSDVKVSFDGDLLVVTSDIARSFNLFAVDGRLIRSVNLIAGRNEIRGLERGFYLAEKQKIFV	-2.07
HMGLAWTVEGRTVLLGRTADRIELYNVGGGLVALARESDRISAPGVGLYVVRVVSDGQSVSQKIWIT	-0.394
HMGLDMSLEREQHRALREASQWYARLADEQVDSDAERAWRHWVAADEANQRAWQYIEAVSQRFDG	-0.315
HMGLDNEGFERLRQKITRLLSEEALPVKELVDSFASKMRQEVLETLAFLQQEGVIEEKNGKLFLK	0.0365
HMGLIDNLTRIMEKKNISAYQLEKAGIVKQTTFTSWKKGTQPALDKIIKIMQYIEVTPNELFGY	-1.39
HMGLKWVYYTNIEPDGNKINNQKLYDILKQKFVYPVIISRDELDSMELKDLTYDSYIDVEGRYFKPYNLD	-2.23
HMGLNPSILVKLGNANIKTIDNLADLASDELKEILEDISITSKEADEIIMRARSSWFEEDDKKEDNI	0.0789
HMGLPAWVPQNYIDRVTAIYDYSADKDDELTFNEGSTIFVLKKNDDGWWEGVMDGVTGLFPGNYVEAT	-0.8

Sequence	soluble fraction (log2)
HMGLQLTPVRRRVLEILLHEHRALGAYDILDKLRSEGLGSQPPVAYRALDFLVTHGFAHKIERLNAF	-0.609
HMGLQRLTVSPEDAGVRIDKYLAEQLPDITRSYLQKLLKDGSVQMNGKPVKASTKTAVGAVIALTIPEP	0.0689
HMGLSAEAARMAIQDAGLSKEDFAQKLGIKKVERVVEWEAGTSKPTFVQAQKIANATNIPFGYLFLVNPPK	0.0125
HMGLTRRAQLEVADANLKRLYPGMHQSWVTAIAEYLHSSYWRYINSLEPEYAASIQRVYEQHIDAM	0.0529
HMGLTYEQILTDVQRFVTQNHADTLSNEGNPEEARKLLKDYILQYVQNRSYHVDGQTTEELVDSLYED	-0.195
HMGLVDSLEPLLRRVYEALPQRRSMTTERLAVAAGLDEESVKVALARLQLSAFVGVDERGWHRSL	-1.11
HMGLVLIDSYNDIGSAKLITNKIRNLGLIFEENENKINVFAGPFEKNDINLKIDFLIRNGYTNAQLY	-2.48
HMGLVQQSAQKSDDAAKLMAANNLNAAQSKYQLPDEAEKDFFTFAFERGYAVEDFVDAGLVDKIMADFSA	-0.078
HMGLVVIGTEAGYPAEKAGILAGDRIRKLNGAAVPDYDTFLTALAARKGEPSAIELERDGKTLEVTVSPL	0.0119
HMGLWWTEAERELVKTTIEQLYKDTNIAEPVDSKNLRASIPALKAMRTGLSAENQARVDTLLGALQV	-0.157
HMGMAGILDSARMASFIQEKLGYGGGQIRASVMGGHGDDMVPLPRYSTVAGVPLSDVLTQNEIDEMFAQ	-0.0615
HMGMDALIGRRVFVSEEILPGDTGGRMAVDGDSWRAISVGTASNIPAGTEVRIRGHQSLVLEVEP	-0.116
HMGMEENLLKERKQILMDIMKSKEYQPMKVKELAMVLNVPKEDREELRYVLNELMNEGKIVESKKGKFSIA	0.177
HMGMESFWNRVANLLNTSTVVELAQILDVKRSTLSSWIHSDRRPPMEVLLKITRLTGVDIHRLE	-1.56
HMGMETQLSPKEKSIYTIIQNRPNIQSGEVSEKLAIPLPTVKRILSDLINKGLIEKQGSGRNVSYTI	0.254
HMGMFNENLRFLRQKRQMSQQAFASILGIPRTTYSEYEKGNTEPNLKLLIRLSELLDVSLDNLISDDLTHN	-2.44
HMGMKTSQKLARQREIVRLIRAQTIRTQAELADALRERAFPVSQPTLSKDIAELGLIKVPLPDSGYRYQLP	-0.378
HMGMNKEHFIIELKIYLKALNPKDQAIILAKYKALFDARVAEGETEEQVAKSLGKPRVIAEEILKEQGIE	-0.236
HMGMSMNEFLNNRLEQLAVEAVDKSSLGEEIFFYAEPATINLFKDAVDEDEYKVVFPVLKSIIEVEQKLSR	-1.03
HMGMTAPIPGVVLKVSVLPGQKVERGDELLTIEAMKMFNVMRSPSSGTIATVHIKDGDRVVQGQPLVTFA	0.025
HMGMTTSILDDVIGMGPKRKKALLKAFGSFGALRNATLEEIKQTHTVPEQVAEDVYAVLVQYNSKSE	-0.233
HMGMVKLNEEYLEKVKKHRKELHITQLQISKKLGWSLSRYQRFESGFYKEIEDDAPKKIKEEFGIDYSLL	-0.976
